Results: publication PMC3419070, “Identification of novel mitosis regulators through data mining with human centromere/kinetochore proteins as group queries” (BMC Cell Biology, 2012)

Target: T1, purified recombinant 6×His-TRIP13 (human, UniProt Q15645 1-432)
T1 construct: TRIP13, human AAA-ATPase; full-length cDNA cloned by the Gateway system; The host is probably E. coli: the methods name destination vectors for E. coli or mammalian cells; also called His-tagged TRIP13
T1 sequence (looked up): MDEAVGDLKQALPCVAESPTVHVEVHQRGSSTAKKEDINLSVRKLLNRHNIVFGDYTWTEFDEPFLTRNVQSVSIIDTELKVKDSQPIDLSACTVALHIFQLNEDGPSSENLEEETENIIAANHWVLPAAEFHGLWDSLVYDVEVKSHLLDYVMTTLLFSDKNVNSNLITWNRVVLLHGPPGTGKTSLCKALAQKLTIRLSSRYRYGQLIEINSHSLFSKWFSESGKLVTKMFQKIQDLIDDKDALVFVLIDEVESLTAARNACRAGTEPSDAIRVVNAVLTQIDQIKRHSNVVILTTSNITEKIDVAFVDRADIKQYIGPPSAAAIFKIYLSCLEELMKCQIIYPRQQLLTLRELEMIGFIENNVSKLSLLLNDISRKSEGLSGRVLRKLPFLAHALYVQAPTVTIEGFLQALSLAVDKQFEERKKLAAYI
Test: pull-down; in vitro binding of recombinant proteins: His-TRIP13 at 100 nM, GST-p31^comet at increasing concentrations; Probond nickel beads, washed; blots with anti-6×His and anti-GST antibodies
Conditions: both partners purified

B1: purified recombinant GST-p31^comet (natural protein, human, UniProt Q15013 1-274, looked up)
chain: MAAPEAEVLSSAAVPDLEWYEKSEETHASQIELLETSSTQEPLNASEAFCPRDCMVPVVFPGPVSQEGCCQFTCELLKHIMYQRQQLPLPYEQLKHFYRKPSPQAEEMLKKKPRATTEVSSRKCQQALAELESVLSHLEDFFARTLVPRVLILLGGNALSPKEFYELDLSLLAPYSVDQSLSTAACLRRLFRAIFMADAFSELQAPPLMGTVVMAQGHRNCGEDWFRPKLNYRVPSRGHKLTVTLSCGRPSIRTTAWEDYIWFQAPVTFKGFRE
notes: p31^comet (MAD2L1BP), human mitotic checkpoint silencing protein; full-length cDNA cloned by the Gateway system; The host is probably E. coli: the methods name destination vectors for E. coli or mammalian cells; also called MAD2L1BP
binding result: binds
